The values that follow come from patent publication US20260000759A1 (Genentech, published 2026).

The target in this assay is T1, human oncostatin M receptor beta (OSMRβ) (human, UniProt Q99650 28-979).
T1 sequence (looked up): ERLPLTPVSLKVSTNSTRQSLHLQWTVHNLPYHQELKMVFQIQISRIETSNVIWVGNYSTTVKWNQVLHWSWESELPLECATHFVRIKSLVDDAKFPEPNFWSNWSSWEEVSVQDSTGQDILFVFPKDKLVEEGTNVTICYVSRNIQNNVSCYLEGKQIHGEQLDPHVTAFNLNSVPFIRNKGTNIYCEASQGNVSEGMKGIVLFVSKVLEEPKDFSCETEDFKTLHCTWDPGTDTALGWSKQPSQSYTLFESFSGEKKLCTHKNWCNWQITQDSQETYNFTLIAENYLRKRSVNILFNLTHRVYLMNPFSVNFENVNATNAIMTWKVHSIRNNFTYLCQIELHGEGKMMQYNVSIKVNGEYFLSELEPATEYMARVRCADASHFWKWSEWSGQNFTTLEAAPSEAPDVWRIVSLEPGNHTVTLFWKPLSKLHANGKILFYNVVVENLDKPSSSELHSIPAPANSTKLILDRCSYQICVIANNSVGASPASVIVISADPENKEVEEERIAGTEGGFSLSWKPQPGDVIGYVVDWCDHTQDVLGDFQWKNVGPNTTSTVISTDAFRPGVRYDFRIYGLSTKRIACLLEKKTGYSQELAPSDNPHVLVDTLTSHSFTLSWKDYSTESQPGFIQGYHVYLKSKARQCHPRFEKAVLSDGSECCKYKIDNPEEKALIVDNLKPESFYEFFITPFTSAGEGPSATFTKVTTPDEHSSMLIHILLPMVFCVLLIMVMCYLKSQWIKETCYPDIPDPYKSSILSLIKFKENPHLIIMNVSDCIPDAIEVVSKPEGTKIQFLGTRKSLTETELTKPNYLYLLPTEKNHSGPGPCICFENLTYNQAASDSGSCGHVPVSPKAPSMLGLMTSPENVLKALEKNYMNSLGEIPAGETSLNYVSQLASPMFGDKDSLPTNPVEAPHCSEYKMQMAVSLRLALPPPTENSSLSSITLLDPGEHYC
Briefly: cell-based or functional assay.

B1: vixarelimab (antibody, human IgG4 S228P, lambda, N297Q, V domains shown)
VH: QVQLVQSGAEVKKPGASVKVSCKASGYTFTSYEINWVRQATGQGLEWMGWMNPNSGYTGYAQKFQGRVTMTRDTSISTAYMEMSSLRSEDTAVYYCARDIVAANTDYYFYYGMDVWGQGTTVTVSS
VL: QSVLTQPPSASGTPGQRVTISCSGSNSNIGSNTVNWYHQLPGTAPKLLIYNINKRPSGVPDRFSGSKSGSSASLAISGLQSEDEADYYCSTWDDSLDGVVFGGGTKLTVLG
Consider B1, for which the “Mean of IC50, inhibition of OSM-induced STAT3 phosphorylation (pSTAT3 Tyr705, MSD); IPF-derived lung fibroblasts, [OSM] 1 ng/mL” value was 12.4 ng/mL; the “Mean of IC50, inhibition of OSM-induced STAT3 phosphorylation (pSTAT3 Tyr705, MSD); IPF-derived lung fibroblasts, [OSM] 10 ng/mL” value was found to be 56.1 ng/mL; the “Mean of IC50, inhibition of OSM-induced STAT3 phosphorylation (pSTAT3 Tyr705, MSD); normal keratinocytes, [OSM] 10 ng/mL” value stood at 4.95 ng/mL; the “Mean of IC50, inhibition of OSM-induced STAT3 phosphorylation (pSTAT3 Tyr705, MSD); normal keratinocytes, [OSM] 100 ng/mL” value turned out to be 45 ng/mL. The “Mean of IC50, inhibition of OSM-induced STAT3 phosphorylation (pSTAT3 Tyr705, MSD); normal lung fibroblasts, [OSM] 1 ng/mL” value stood at 13 ng/mL and the “Mean of IC50, inhibition of OSM-induced STAT3 phosphorylation (pSTAT3 Tyr705, MSD); normal lung fibroblasts, [OSM] 10 ng/mL” value is 88.2 ng/mL.
